Experimental data from patent US10640547B2, “Immunotherapy against melanoma and other cancers” (IMMATICS BIOTECHNOLOGIES GMBH, priority 2016, dated 2020).

Target: HLA-A*02:01 (Homo sapiens, UniProt P04439, D140Y/D185E/D98H/E176V/E277Q/G131W/G231S/I119V/I121R/I166T/I218V/L300P/L318F/N151K/N90K/P208A/P217A/Q86G/Q94H/R138H/R169H/T345S)
Test: MHC binding assay (UV-ligand exchange, β2m ELISA)
Conditions: MHC class I binding score; binding to HLA-A*02:01 ranged by peptide exchange yield (UV-ligand exchange, β2m ELISA)
Description: Candidate peptides for T cell based therapies according to the present invention were further tested for their MHC binding capacity (affinity). The individual peptide-MHC complexes were produced by UV-ligand exchange, where a UV-sensitive peptide is cleaved upon UV-irradiation, and exchanged with the peptide of interest as analyzed. Only peptide candidates that can effectively bind and stabilize the peptide-receptive MHC molecules prevent dissociation of the MHC complexes. To determine the yield of the exchange reaction, an ELISA was performed based on the detection of the light chain (β2m) of stabilized MHC complexes. The assay was performed as generally described in Rodenko et al. (Rodenko et al., 2006).
96 well MAXISorp plates (NUNC) were coated over night with 2 ug/ml streptavidin in PBS at room temperature, washed 4× and blocked for 1 h at 37° C. in 2% BSA containing blocking buffer. Refolded HLA-A*02:01/MLA-001 monomers served as standards, covering the range of 15-500 ng/ml. Peptide-MHC monomers of the UV-exchange reaction were diluted 100 fold in blocking buffer. Samples were incubated for 1 h at 37° C., washed four times, incubated with 2 ug/ml HRP conjugated anti-β2m for 1 h at 37° C., washed again and detected with TMB solution that is stopped with […]. Absorption was measured at 450 nm. Candidate peptides that show a high exchange yield (preferably higher than 50%, most preferred higher than 75%) are generally preferred for a generation and production of antibodies or fragments thereof, and/or T cell receptors or fragments thereof, as they show sufficient avidity to the MHC molecules and prevent dissociation of the MHC complexes.

Row | Peptide exchange | Substance
1 | ++ (>20% = ++) | 170 (KLKEAVEAI; listed as Homo sapiens) [compound 170]
2 | ++++ (>75% = ++++) | 171 (KVSGVILSV; listed as Homo sapiens) [compound 171]
3 | ++++ (>75% = ++++) | 172 (FLPAGIVAV; listed as Homo sapiens) [compound 172]
4 | +++ (>50 = +++) | 173 (ALDDIIYRA; listed as Homo sapiens) [compound 173]
5 | +++ (>50 = +++) | 174 (TLLEGLTEL; listed as Homo sapiens) [compound 174]
6 | ++++ (>75% = ++++) | 175 (VLDSVDVRL; listed as Homo sapiens) [compound 175]
7 | ++++ (>75% = ++++) | 176 (TLYEQEIEV; listed as Homo sapiens) [compound 176]
8 | ++++ (>75% = ++++) | 177 (ILWDTLLRL; listed as Homo sapiens) [compound 177]
9 | ++++ (>75% = ++++) | 178 (FAYDGKDYIA; listed as Homo sapiens) [compound 178]
10 | +++ (>50 = +++) | 179 (ALDDTVLQV; listed as Homo sapiens) [compound 179]
11 | +++ (>50 = +++) | 180 (KLAEALYIA; listed as Homo sapiens) [compound 180]
12 | ++++ (>75% = ++++) | 181 (GLIDLEANYL; listed as Homo sapiens) [compound 181]
13 | ++++ (>75% = ++++) | 182 (SVALVIHNV; listed as Homo sapiens) [compound 182]
14 | ++++ (>75% = ++++) | 183 (FLDSLIYGA; listed as Homo sapiens) [compound 183]
15 | ++++ (>75% = ++++) | 184 (VLFSSPPVILL; listed as Homo sapiens) [compound 184]
16 | ++++ (>75% = ++++) | 185 (ILADATAKM; listed as Homo sapiens) [compound 185]
17 | ++++ (>75% = ++++) | 186 (FLDHEMVFL; listed as Homo sapiens) [compound 186]
18 | +++ (>50 = +++) | 187 (SLPRPTPQA; listed as Homo sapiens) [compound 187]
19 | +++ (>50 = +++) | 188 (VVVDPIQSV; listed as Homo sapiens) [compound 188]
20 | +++ (>50 = +++) | 193 (ALDEPTTNL; listed as Homo sapiens) [compound 193]
21 | +++ (>50 = +++) | 194 (TLDDIMAAV; listed as Homo sapiens) [compound 194]

Row | Peptide exchange | Substance
22 | + (>10% = +) | 195 (IAAGIFNDL; listed as Homo sapiens) [compound 195]
23 | +++ (>50 = +++) | 196 (ALEPIDITV; listed as Homo sapiens) [compound 196]
24 | ++++ (>75% = ++++) | 197 (ALDSGFNSV; listed as Homo sapiens) [compound 197]
25 | + (>10% = +) | 198 (EVVDKINQV; listed as Homo sapiens) [compound 198]
26 | ++ (>20% = ++) | 199 (AIHTAILTL; listed as Homo sapiens) [compound 199]
27 | +++ (>50 = +++) | 200 (LLEEINHFL; listed as Homo sapiens) [compound 200]
28 | +++ (>50 = +++) | 201 (SLIDRTIKM; listed as Homo sapiens) [compound 201]
29 | +++ (>50 = +++) | 202 (RVAFKINSV; listed as Homo sapiens) [compound 202]
30 | +++ (>50 = +++) | 203 (FLNEDISKL; listed as Homo sapiens) [compound 203]
31 | +++ (>50 = +++) | 204 (RMDEEFTKI; listed as Homo sapiens) [compound 204]
32 | ++++ (>75% = ++++) | 205 (SLKSKVLSV; listed as Homo sapiens) [compound 205]
33 | +++ (>50 = +++) | 206 (LLYEDIPDKV; listed as Homo sapiens) [compound 206]
34 | ++++ (>75% = ++++) | 207 (VQIGDIVTV; listed as Homo sapiens) [compound 207]
35 | ++ (>20% = ++) | 208 (YSDDIPHAL; listed as Homo sapiens) [compound 208]
36 | +++ (>50 = +++) | 209 (SILDGLIHL; listed as Homo sapiens) [compound 209]
37 | +++ (>50 = +++) | 210 (LLPELRDWGV; listed as Homo sapiens) [compound 210]
38 | +++ (>50 = +++) | 212 (LLKDSIVQL; listed as Homo sapiens) [compound 212]
39 | +++ (>50 = +++) | 214 (VLMEMSYRL; listed as Homo sapiens) [compound 214]
40 | +++ (>50 = +++) | 215 (EVISKLYAV; listed as Homo sapiens) [compound 215]
41 | ++++ (>75% = ++++) | 216 (TLLHFLAEL; listed as Homo sapiens) [compound 216]
42 | +++ (>50 = +++) | 217 (NMMSGISSV; listed as Homo sapiens) [compound 217]

Row | Peptide exchange | Substance
43 | +++ (>50 = +++) | 218 (STLHLVLRL; listed as Homo sapiens) [compound 218]
44 | +++ (>50 = +++) | 219 (FLDSEVSEL; listed as Homo sapiens) [compound 219]
45 | +++ (>50 = +++) | 220 (SAAEPTPAV; listed as Homo sapiens) [compound 220]
46 | +++ (>50 = +++) | 221 (SLLPTEQPRL; listed as Homo sapiens) [compound 221]
47 | ++++ (>75% = ++++) | 222 (LLSEIEEHL; listed as Homo sapiens) [compound 222]
48 | +++ (>50 = +++) | 223 (FLETNVPLL; listed as Homo sapiens) [compound 223]
49 | ++ (>20% = ++) | 224 (ILDEPTNHL; listed as Homo sapiens) [compound 224]
50 | ++++ (>75% = ++++) | 225 (VLFGAVITGA; listed as Homo sapiens) [compound 225]
51 | ++++ (>75% = ++++) | 226 (VLNEYFHNV; listed as Homo sapiens) [compound 226]
52 | ++++ (>75% = ++++) | 227 (FLLEQEKTQAL; listed as Homo sapiens) [compound 227]
53 | ++++ (>75% = ++++) | 228 (FLNLFNHTL; listed as Homo sapiens) [compound 228]
54 | ++++ (>75% = ++++) | 229 (LLEPFVHQV; listed as Homo sapiens) [compound 229]
55 | ++++ (>75% = ++++) | 230 (HLDEARTLL; listed as Homo sapiens) [compound 230]
56 | +++ (>50 = +++) | 231 (KMVGDVTGA; listed as Homo sapiens) [compound 231]
57 | ++++ (>75% = ++++) | 233 (QLYNQIIKL; listed as Homo sapiens) [compound 233]
58 | ++++ (>75% = ++++) | 234 (KVPEIEVTV; listed as Homo sapiens) [compound 234]
59 | ++++ (>75% = ++++) | 235 (ALADLQEAV; listed as Homo sapiens) [compound 235]
60 | ++++ (>75% = ++++) | 236 (GLDSGFHSV; listed as Homo sapiens) [compound 236]
61 | ++++ (>75% = ++++) | 237 (VLYNESLQL; listed as Homo sapiens) [compound 237]
